Test results as given in paper PMC5574378.

How the values were obtained:
[1] = molecular target: arsenite oxidase (Aio) from Rhizobium sp. str. NT-26, wild type (Rhizobium sp. str. NT-26)
[2] = molecular target: arsenite oxidase (Aio) from Rhizobium sp. str. NT-26 with the AioB-F108A substitution (Rhizobium sp. str. NT-26); experiment: ITC; 750 μM reduced cytochrome c in the syringe injected (1.5 or 2 μL) into 75 μM reduced Aio in the cell; 50 mM Tris-HCl (pH 8), no NaCl, 25 °C; 1:1 binding fit; three enzyme preparations
[3] = molecular target: arsenite oxidase (Aio) from Rhizobium sp. str. NT-26, wild type (Rhizobium sp. str. NT-26); experiment: as above

- KM for cytochrome c, steady-state kinetics of Aio with 2.5 mM arsenite and 0.5-10 μM cytochrome c [1]: 1 µM
- Kd [2]: 7.8 µM
- dH (kcal mol^(− 1)) [2]: 3
- stoichiometry N [2]: 0.82
- Kd [3]: 2.3 µM
- dH (kcal mol^(− 1)) [3]: 6
- stoichiometry N [3]: 0.85
Substance: horse heart cytochrome c (from UniProt P00004 1-105) (natural protein)
